The text below walks through data of paper PMC11225796.

Holding throughout (assay): cross-linking
Assay [1] addresses MBP-Z(6His).
Assay [2] has as its target MBP-Z(6His). The source holds these as a separate data set.
Assay [3] addresses MBP-Z(6Tyr).
In assay [4] the target is MBP-Z(6His). The source holds these as a separate data set.
Assay [5] deals with MBP-Z(6Tyr). This is another data set of the same source.
In assay [6] the target is MBP-Z(6Tyr). This is another data set of the same source.
For assay [7], the target named is MBP-Z(6His). The source holds these as a separate data set.
For assay [8], the target named is MBP-Z(6Tyr). The source holds these as a separate data set.
In assay [9] the target is MBP-Z(6His). This is another data set of the same source.
Assay [10] has as its target MBP-Z(6Tyr). The source holds these as a separate data set.

Like-named read-outs stand apart in the source and are kept apart here.

In the assay with MBP-Z(6His) [1], “Zspa affibody with FSY at site 36, Afb(36FSY) (designed binder)” yielded a cross-linking efficiency (day 0) of 60.2%, a cross-linking efficiency (day 1) of 47.7%, a cross-linking efficiency (day 3) of 27.5% and a cross-linking efficiency (day 5) of 17.9%.
In the case of “Zspa affibody with PFY at site 36, Afb(36PFY) (designed binder)”, the cross-linking efficiency in the assay with MBP-Z(6His) [2] was 37.4%; with MBP-Z(6Tyr) [3], 26.8%; with MBP-Z(6His) [4], 21.4%; with MBP-Z(6Tyr) [5], 5.3%; with MBP-Z(6His) [1], 5%; with MBP-Z(6Tyr) [6] it was 27.5%. Further, the cross-linking efficiency in the assay with MBP-Z(6His) [7] was 35.3%; with MBP-Z(6Tyr) [8] it was 33.7%; in the assay with MBP-Z(6His) [9] it was 21.3%; in the assay with MBP-Z(6Tyr) [10], 44.5%. The cross-linking efficiency (1 mM Na2SiO3) came to 18.8% with MBP-Z(6His) [1] and 45.7% with MBP-Z(6Tyr) [6]. Moreover, the cross-linking efficiency (no Na2SiO3) with MBP-Z(6His) [1] was 36.9%; with MBP-Z(6Tyr) [6], 24.7%.
